Test [1] deals with antibody Refmab #1. Nature of the test: Octet titration, steady state KD of CD117 D1-2-3 variants to Refmab #1. In kind it is binding. As to conditions: for Kd: 7 concentrations 2000-5 nM, steady state, two individual experiments. The method, then:
To further characterize binding of Refmab #1 to CD117 D1-2-3 variants E73K, E73L, E73R, E73Y, D121H, D121K, S123K and S123F, the analytes were titrated at 7 different concentrations (from 2000 nM to 5 nM). Antibody Refmab #1 was captured by AHC biosensors for 300 s at 0.5 to 1 μg/mL. Association and dissociation to Refmab #1 was extended to 600 s and 1000 s, respectively. Steady state analysis was performed.

Test [2] relates to antibody Refmab #1. Nature of the test: Octet screen: binding of CD117 D1-2-3 variants to captured Refmab #1. As to conditions: nm shift at end of association, top analyte concentration (500 nM). The method, then:
(§1) A more sophisticated analysis of binding to the elected variants was performed with antibody Refmab #1. Binding of Refmab #1 to wt and variants (analyte) was measured in an Octet system RED96e or R8 at 25° C. with shaking at 1,000 rpm using 1× kinetic buffer (Sartorius, PN: 18-1105). First, the elected variants were screened for their ability to bind Refmab #1 using three different concentrations of analytes. Antibody Refmab #1 was captured by Anti-Human Fc capture biosensor (AHC) (Sartorius, PN: 18-5060) for 300 s at 0.5 to 1 μg/mL. As an analyte, human CD117 wt and variants, containing only domains 1, 2 and 3 (CD117 D1-2-3), was titrated at 500 nM, 50 nM and 5 nM. Association and dissociation of the analyte to Refmab #1 was monitored for 300 s and 900 s, respectively. Reference subtraction was performed against buffer only wells. AHC tips were regenerated using 10 mM Gly-HCl pH 1.7. Data were analyzed using the Octet Data Analysis software HT 12.0. Data were fitted (when possible) to a 1:1 binding model. Kinetic rates ka and […] globally fitted. Binding level of the elected variants were compared to wild type and are shown as percent in FIG. 7. For this qualitative analysis, the binding level of the top analyte concentration at end of the association step was used.
A general note: In BLI a coated tip is dipped into the sample, and binding shifts an interference pattern.

A further test has as its system Refmab #1. The test is described as follows: Refmab #1 titration on engineered TF-1 cells (flow cytometry). In kind it is binding. As to conditions: 5-0.00015 μg/mL antibody; 4° C. The method, then:
Binding of Refmab #1 was assessed in a flow cytometry assay. TF-1 cells were seeded at a cell concentration of 1,000,000 cells/ml in FACS Buffer (PBS+2% FCS+1 mM EDTA). After a Fc blocking using 1:20 diluted TruStain (BioLegend, #422302) in FACS buffer for 15 minutes at 4° C., cells were washed twice with FACS buffer. Subsequently, a SR-1 titration was added to the cells using 5-0.00015 μg/mL antibody for 30 minutes at 4° C. on a plate shaker. Cells were washed twice with FACS buffer and a secondary labelled antibody (IgG (H+L) Cross-Adsorbed Goat anti-Human, Alexa Fluor® 488, Invitrogen, A11013) was added to the cells for 30 minutes at 4° C. on a plate shaker. Cells were washed twice with FACS buffer, before adding 1:100 diluted solution of 7AAD staining (cell viability) in FACS buffer for a couple of minutes and analyzing the cells using the Novocyte Quanteon (Agilent).
On the technique in general: A flow cytometer gives signals particle by particle.

The next test deals with TF-1 cells. Nature of the test: SCF-dependent proliferation, SCF titration on TF-1 cells with CD117 variants (CellTiter-Glo). The note with it: for EC50 Average: average of two experiments; for EC50 Experiment #1 / EC50 Experiment #2: titration of SCF, 3 days, TF-1 cells with the CD117 variant. In kind it is cell-based, human. As for the experimental part: In another experiment, SCF-dependent proliferation of variants E73K, E73Y, D121K, S123F and S123K was compared against wildtype CD117. TF-1 cells were seeded at a cell concentration of 150 000 cells/ml in sterile, white cell culture treated plates with transparent bottom in RPMI+GlutaMax+10% FCS. Cells were treated with a titration of SCF. After 3 days of incubation a CellTiter-Glo 2.0 assay (Promega) was performed, luminescence was read in a luminometer (Envision plate reader) and EC50's was determined. Two different experiments with triplicates in each experiment were performed.
For orientation: ATP-based viability assays read luminescence as a measure of living cells.

The target of another test is T1, SCF (Homo sapiens, UniProt P21583).
T1 construct: purchased Acros Biosystems SCF-H82E1
Nature of the test: Octet: binding of CD117 D1-2-3 variants to SCF. As to conditions: CD117 D1-2-3 constructs; for KD increase of SCF binding compared to wild type CD117: steady state. As for the experimental part:
SCF binding is one function of CD117. SCF binding is important for the transmission of functional signals by CD117. Binding of the elected variants to SCF was measured on an Octet system RED96e or R8 at 25° C. with shaking at 1000 rpm using 1× Kinetic Buffer (Sartorius, PN: 18-1105). […] Domain 1, 2, 3 comprise the binding site for SCF. Domains 4 and 5 were used as a negative, non-binding control.
CD117 D1-2-3 wt and variants thereof are titrated with different concentrations from 1000 to 5 nM. Association was monitored for 300 s and dissociation for 600 s. Binding to human CD117 domain 4 and 5 (CD117 D4-5) was performed under the same conditions as non-binding control. Reference subtraction was performed against buffer only wells. Biosensors were not regenerated and a new set of SA biosensors was used for each analyte. Data were analyzed using the Octet Data Analysis software HT 12.0. Steady state data analysis was performed due to the fast on/off nature of the interaction.

A further test relates to Refmab #3. Nature of the test: Octet: binding of CD117 variants to Refmab #3. As to conditions: qualitative Octet analysis. As for the experimental part:
as §1
A similar experiment to that in Example 7 was performed, but utilizing Refmab's #2 and #3.

A further test has as its target human wild-type CD117 (human, UniProt P10721 26-976). The test is described as follows: cell-based or functional assay.
A further test has as its target T2, Biotinylated Avitag-hSCF (human, UniProt P21583 26-190, limits assumed, biotinylated Avitag).
T2 construct: Bought reagent; also called hSCF (Acros Biosystems SCF-H82E1)
The test is described as follows: BLI (Octet), steady state: biotinylated SCF on streptavidin biosensor, CD117 D1-2-3 variant as analyte; KD relative to WT.

Substitutions are numbered along the chain they refer to. In names and notes the source's numbering stands. Entries after “also recorded” stand apart in the source; their conditions may differ.

Sequence of Refmab #3 (as listed by the source): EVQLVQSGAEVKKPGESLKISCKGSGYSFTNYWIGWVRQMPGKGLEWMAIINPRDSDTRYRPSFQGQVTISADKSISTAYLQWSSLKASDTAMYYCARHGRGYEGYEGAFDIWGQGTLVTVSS
Sequence of Refmab #3 (as listed by the source): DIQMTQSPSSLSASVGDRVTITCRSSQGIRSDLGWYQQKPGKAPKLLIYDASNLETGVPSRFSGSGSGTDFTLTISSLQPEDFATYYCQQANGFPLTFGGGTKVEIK
T1 sequence (P21583 26-273): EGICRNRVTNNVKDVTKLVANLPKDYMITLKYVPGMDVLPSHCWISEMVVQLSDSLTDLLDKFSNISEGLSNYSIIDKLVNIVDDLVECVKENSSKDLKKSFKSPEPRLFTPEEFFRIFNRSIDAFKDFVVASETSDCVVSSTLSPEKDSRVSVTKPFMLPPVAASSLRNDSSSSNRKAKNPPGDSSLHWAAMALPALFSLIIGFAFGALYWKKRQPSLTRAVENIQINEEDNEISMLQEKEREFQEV
Sequence of antibody Refmab #1 (as listed by the source, one chain of several): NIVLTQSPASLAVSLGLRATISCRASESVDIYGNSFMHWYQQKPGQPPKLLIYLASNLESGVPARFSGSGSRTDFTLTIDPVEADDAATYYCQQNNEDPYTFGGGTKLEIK
Sequence of Refmab #1 (as listed by the source, one chain of several): as above
T2 sequence (P21583 26-190 limits assumed): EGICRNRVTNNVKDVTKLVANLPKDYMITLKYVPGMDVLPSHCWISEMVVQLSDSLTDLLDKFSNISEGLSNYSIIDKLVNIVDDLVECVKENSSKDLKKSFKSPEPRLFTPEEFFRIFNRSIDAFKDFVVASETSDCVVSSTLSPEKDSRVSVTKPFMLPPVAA

By Kd is commonly meant the free concentration of one partner at which half of the binding sites on the other are occupied at equilibrium, for simple one-to-one binding. “E73Y: variant of human CD117 with substitution E73Y”: the Kd at antibody Refmab #1 [1] is 691 nM. Also, in the test with antibody Refmab #1 [1] (KD variant vs wild type), the “change of KD compared to wild type CD117” value is “around 700 fold”. Besides, the “binding to Refmab #1 compared to wild type” value in the test on antibody Refmab #1 [2] is “particular strong decrease in binding”. Besides, the “Binding of Refmab #1 to TF-1 cells expressing the CD117 variant” value in the test with Refmab #1 is on record as “completely abolished”. In the test with TF-1 cells, the “EC50 Average” value is 4.01 ± 0.37 ng/mL, the “EC50 Experiment #1” value was determined as 4.37 ng/mL and the “EC50 Experiment #2” value was found to be 3.64 ng/mL.

Molecule “wild type CD117: wild type human CD117 (SEQ ID No. 1); recombinant D1-2-3 construct or expressed in TF-1 cells [reference compound]” registered a Kd at antibody Refmab #1 [1] of 1 nM. Further, the “Binding of Refmab #1 to TF-1 cells expressing the CD117 variant” value in the test on Refmab #1 was “bound”. Besides, in the test with TF-1 cells, the “EC50 Average” value was found to be 4.18 ± 0.04 ng/mL, the “EC50 Experiment #1” value was determined as 4.14 ng/mL and the “EC50 Experiment #2” value was 4.22 ng/mL.

B1: S123V: variant of human CD117 with substitution S123V (protein)
chain: QPSVSPGEPSPPSIHPGKSDLIVRVGDEIRLLCTDPGFVKWTFEILDETNENKQNEWITEKAEATNTGKYTCTNKHGLSNSIYVFVRDPAKLFLVDRVLYGKEDNDTLVRCPLTDPEVTNYSLKGCQGKPLPKDLRFIPDPKAGIMIKSVKRAYHRLCLHCSVDQEGKSVLSEKFILKVRPAFKAVPVVSVSKASYLLREGEEFTVTCTIKDVSSSVYSTWKRENSQTKLQEKYNSWHHGDFNYERQATLTISSARVNDSGVFMCYANNTFGSANVTTTLEVVDKG
For B1, the “binding to Refmab #1 compared to wild type” value in the test on antibody Refmab #1 [2] was “strong decrease in binding”. Also, in the test with SCF, the “binding to SCF” value was “binding to SCF, albeit to a slightly lower degree” and the “KD increase of SCF binding compared to wild type CD117” value (“KD increase of SCF binding” below) is given as “less than three-fold; also recorded: less than four-fold”.

B2: K127L: variant of human CD117 with substitution K127L (protein)
chain: B1 chain with V98S, K102L
Consider B2, for which the “binding to SCF” value with SCF was “binding to SCF, albeit to a slightly lower degree”.

B3: S261Q: variant of human CD117 with substitution S261Q (protein)
chain: B1 chain with V98S, S236Q
Consider B3, for which the “binding to Refmab #3 compared to wild type CD117” value in the test with Refmab #3 is “complete loss of binding”.

B4: Y259A: variant of human CD117 with substitution Y259A (protein)
chain: B1 chain with V98S, Y234A
As to B4, the “binding to Refmab #3 compared to wild type CD117” value with Refmab #3 is reported as “strong decrease in binding”.

B5: Y259P: variant of human CD117 with substitution Y259P (protein)
chain: B1 chain with V98S, Y234P
As to B5, the “binding to Refmab #3 compared to wild type CD117” value in the test on Refmab #3 is recorded as “strong decrease in binding”. In addition, in the test with SCF, the “KD increase of SCF binding” value is listed as “less than three-fold; also recorded: less than four-fold”.

B6: S261E: variant of human CD117 with substitution S261E (protein)
chain: B1 chain with V98S, S236E
Regarding B6, in the test with Refmab #3, the “binding to Refmab #3 compared to wild type CD117” value was “complete loss of binding”.

B7: Y259E: variant of human CD117 with substitution Y259E (protein)
chain: B1 chain with V98S, Y234E
Regarding B7, in the test with SCF, the “binding to SCF” value was “binding to SCF, albeit to a slightly lower degree” and the “KD increase of SCF binding” value is recorded as “less than three-fold; also recorded: less than four-fold”.

B8: Refmab #1-Ernie (antibody, V domains shown)
VH: QVQLQQPGAELVKPGASVKMSCKASGYTFTSYNMHWVKQTPGQGLEWIGVIYSGNGDTSYNQKFKGKATLTADKSSSTAYMQINSLTSEDSAVYYCARERDTRFGNWGQGTLVTVSA
VL: EIVLTQSPSSLSASVGDRVTITCRASESVDIYGESFMHWYQQKPGKAPKLLIYLASNLESGVPSRFSGSGSGTDFTLTISSLQPEDFATYYCQQNNEEPYTFGQGTKLEIKR
Regarding B8, in the test with human wild-type CD117, the “IC50 in a SCF-dependent proliferation assay on HSPC's” value was 5.21 ng/mL and the “IC50 in a SCF-dependent proliferation assay on TF-1 cells” value was 17.6 ng/mL.

B9: Refmab #1-Bert (antibody, V domains shown)
VH: B8 VH
VL: B8 VL with N96K
On to B9, for which, in the test with human wild-type CD117, the “IC50 in a SCF-dependent proliferation assay on HSPC's” value was 31.3 ng/mL and the “IC50 in a SCF-dependent proliferation assay on TF-1 cells” value was 44.1 ng/mL.

B10: Y259G (receptor)
extracellular domains 1, 2 and 3: QPSVSPGEPSPPSIHPGKSDLIVRVGDEIRLLCTDPGFVKWTFEILDETNENKQNEWITEKAEATNTGKYTCTNKHGLSNSIYVFVRDPAKLFLVDRSLYGKEDNDTLVRCPLTDPEVTNYSLKGCQGKPLPKDLRFIPDPKAGIMIKSVKRAYHRLCLHCSVDQEGKSVLSEKFILKVRPAFKAVPVVSVSKASYLLREGEEFTVTCTIKDVSSSVYSTWKRENSQTKLQEKGNSWHHGDFNYERQATLTISSARVNDSGVFMCYANNTFGSANVTTTLEVVD
notes: not in the list MOLECULES; also called human CD117 D1-2-3 variant Y259G
Consider B10, for which the “binding to Refmab #3 compared to wild type CD117” value in the test on Refmab #3 is reported as “strong decrease in binding”. Further, the binding result with Biotinylated Avitag-hSCF is “binds”.

Values taken from patent US20250057951A1, “DISCERNIBLE CELL SURFACE PROTEIN VARIANTS OF CD117 FOR USE IN CELL THERAPY” (UNIVERSITÄT BASEL, priority 2021, published 2025).
